The record followed here is the supplement of paper PMC12764529.

Series [1] in a line: folding stability dG unfold from trypsin proteolysis; higher = more stable. The method, boiled down:
(§1)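 Mini-proteins designed to be under 80 residues and free of cysteine were carried in a PA-tagged cDNA display construct and digested with trypsin and with chymotrypsin. Each protease was applied at 11 threefold-diluted concentrations, alongside a no-protease condition, before sequencing. K50 came from Bayesian fitting of the sequencing counts, and unfolding free energy was obtained by comparing it with a sequence-predicted unfolded-state K50 and a shared folded-state K50, for each protease separately or for both together. Designs were retained only if their AlphaFold2 dimer inter-PAE exceeded 15.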

A short description of series [2]: folding stability dG unfold from chymotrypsin proteolysis; higher = more stable. The method, boiled down:
as §1

The nature of series [3]: folding stability dG unfold (combined trypsin and chymotrypsin); higher = more stable. The method, boiled down:
as §1

± gives the half width of the 95% confidence interval.

For “MLTKVSTLTREDPSTGTTTTITVYKPPDGTLIVKVTTTTYSTTPDGTVTTTTSTTTVTLPPSVDVEKVFSSS [r1_243_JUSTAS]”, the “folding stability dG unfold” value in series [1] turned out to be 1.76 ± 0.068 kcal/mol; in series [2] it was 3.01 ± 0.056 kcal/mol; in series [3], 2.58 ± 0.12 kcal/mol.

As for “MLTLPDGRPAFVRARVVLPPGVRVTVVGDIPAEELERRLGRRVTPEDIVRAVVEAARRRGLTVEAVELDLRS [r1_338_TrMRF]”, the entries for the “folding stability dG unfold” value in series [1], in series [2] and in series [3] were 1.11 ± 0.013 kcal/mol, 1.02 ± 0.031 kcal/mol and 1.09 ± 0.034 kcal/mol, respectively.

Consider “MMKVKIEVRNEENEEVLTIELEVPEGEELTEEEILDLIAERLGLSKEELRKRVRIEYDEETKRIRIEIRIES [r1_285_TrROS_Hall]”, for which the entries for the “folding stability dG unfold” value in series [1], in series [2] and in series [3] were 3.5 ± 0.053 kcal/mol, 2.27 ± 0.036 kcal/mol and 2.87 ± 0.08 kcal/mol, respectively.

For the sequence “MRTVLLPIAGLPPEQVREAIERAVRAAREAGQPDTTLIVFNPGPAEQVEETTRLVQELADEPDFTVTVIPIS [r1_387_TrMRF]”, the “folding stability dG unfold” value turned out to be 0.685 ± 0.046 kcal/mol in series [1], 0.0961 ± 0.12 kcal/mol in series [2] and 0.382 ± 0.14 kcal/mol in series [3].

On to “MTIEITIVAKTEEEAKEAAEELARKLAEELGLSEEELENLKIEVEKVEVTNEDGEKYYVVKIKIELPPEFKS [r1_81_TrROS_Hall]”, for which the “folding stability dG unfold” value worked out at 2.93 ± 0.38 kcal/mol in series [1], 3.61 ± 0.25 kcal/mol in series [2] and 3.25 ± 0.4 kcal/mol in series [3].

As for “MTITVRFTFQTEEEAEKAAEEVKRKLAEELGLSEEVLKKIPVEVKRTETGSENGEPVYEVTVTFKLPEELLS [r1_81_JUSTAS]”, the “folding stability dG unfold” value in series [1] stood at 4.17 ± 0.14 kcal/mol; in series [2] it was 4.94 ± 0.084 kcal/mol; in series [3], 4.84 ± 0.084 kcal/mol.

For the sequence “MTLEELKAAEGKRLEDVVTVEIVRVERDPETGEEKVVEKRTITFPPGMTLEELKALLESLPAEVRITRVRRS [r1_132_TrROS_Hall]”, the results for the “folding stability dG unfold” value in series [1], in series [2] and in series [3] were 1.85 ± 0.041 kcal/mol, 2.27 ± 0.035 kcal/mol and 2.11 ± 0.11 kcal/mol, respectively.

Take “MTTRTLTLTVETSSPEEAEAVREKIRAELGRPDVDVEILEVTFSPDGTVTITIRLAPGVPEERVRALLDALS [r1_485_JUSTAS]”: the “folding stability dG unfold” value is 3.37 ± 0.05 kcal/mol in series [1], 2.266 ± 0.0084 kcal/mol in series [2] and 2.79 ± 0.034 kcal/mol in series [3].

In the case of “MTVELETTDIEELLARIEEAAAAGKNVTVTAKPEEFEKIRAEGFKIDEILEVKPVPGDDTVVTLINISPEGS [r1_173_JUSTAS]”, the “folding stability dG unfold” value in series [1] came to 1.11 ± 0.038 kcal/mol; in series [2], 0.699 ± 0.083 kcal/mol; in series [3], 0.897 ± 0.085 kcal/mol.

“MVVTVETTMIDPEGNPLTKTFTVPSSVVEALKEAGKPLTKEELEKLVKEKVEAEAKKYNVSVEVTLVSFERS [r1_174_JUSTAS]”: the “folding stability dG unfold” value in series [1] turned out to be 2.21 ± 0.17 kcal/mol; in series [2] it was 2.7 ± 0.066 kcal/mol; in series [3], 2.6 ± 0.27 kcal/mol.

As to “NKIEIKAYKIEETGEIIVEVKIEFPVYDPETKTIKPVVLTITFVGDPEKAIEAIKKFVDFYGGEIDYIDFGS [r1_488_TrMRF]”, the entries for the “folding stability dG unfold” value in series [1], in series [2] and in series [3] were 2.84 ± 0.099 kcal/mol, 4.5 ± 0.091 kcal/mol and 4.36 ± 0.1 kcal/mol, respectively.

For “NPIERLKEAIKNAPPGETADIPFPDGMYININIEPEREKEDGKPRRRRKIKIEIYPPDGKPLGSITLEVPYS [r1_386_TrROS]”, the “folding stability dG unfold” value in series [1] came out at 1.49 ± 0.084 kcal/mol; in series [2], 1.23 ± 0.11 kcal/mol; in series [3], 1.36 ± 0.15 kcal/mol.

With “PANVTYEFELADGYRVRVTLNPETGTATVEVEPVPERPPVAPVFIPRTLPEEEREALRRAAEEAGLEVVVGS [r1_242_TrMRF]”, the “folding stability dG unfold” value in series [1] is 2.42 ± 0.036 kcal/mol; in series [2], 3.348 ± 0.031 kcal/mol; in series [3], 3.06 ± 0.054 kcal/mol.

Take “PAVPKEYTVTLPNATAKVTLEEYEDFVLATAEVTFPDGAKATVTVTLEPTPDGVKRTVTLNIPPGFGAKLGS [r1_153_TrMRF]”: the “folding stability dG unfold” value in series [1] stood at 1.17 ± 0.013 kcal/mol; in series [2], 1.9 ± 0.03 kcal/mol; in series [3], 1.65 ± 0.06 kcal/mol.

“PDDVYVMFEIEPTNDGIKIPIKVRVPGKPIAEVEVPVDPDDGKIKIMVKFPSPEALDEAEDLLKELGIKPTS [r1_455_TrROS]”: the “folding stability dG unfold” value in series [1] turned out to be 0.319 ± 0.11 kcal/mol; in series [2] it was 0.42 ± 0.12 kcal/mol; in series [3], 0.537 ± 0.21 kcal/mol.

Turning to “PIIHFRSPEDAEDFVKELVKKIAKEARKNGDPGQPYEIKIPVVWHDEDSGGPHRFPIEIEIRPDGDIKLTFS [r1_316_TrROS]”, the “folding stability dG unfold” value was found to be 0.782 ± 0.02 kcal/mol in series [1], 1.76 ± 0.088 kcal/mol in series [2] and 1.42 ± 0.062 kcal/mol in series [3].

As for “PKPLIEIERLPEGVLRARAINPVTGAPITITVPVEPGVDGYRLLAEVEAENVPPELAVKTAETVLALLEKKS [r1_403_TrMRF]”, the “folding stability dG unfold” value in series [1] was -0.115 ± 0.24 kcal/mol; in series [2], -0.183 ± 0.33 kcal/mol; in series [3] it was -0.0268 ± 0.26 kcal/mol.

For the sequence “PPGYRPIEIEIPMKVESIEEAKEEVLNFAHELAEAFPNITDINVEVDKIDPNNGYIFAKITIYVGDKTITIS [r1_52_TrROS]”, the “folding stability dG unfold” value in series [1] turned out to be 0.424 ± 0.13 kcal/mol; in series [2], 2.04 ± 0.081 kcal/mol; in series [3] it was 1.8 ± 0.43 kcal/mol.
